Test results: article PMC2121028 (The Journal of Cell Biology, 1996)

B1: beta'-COP, GAL4 fusion (natural protein, bovine, UniProt P35605 1-906, looked up)
chain: MPLRLDIKRKLTARSDRVKSVDLHPTEPWMLASLYNGSVCVWNHETQTLVKTFEVCDLPVRAAKFVARKNWVVTGADDMQIRVFNYNTLERVHMFEAHSDYIRCIAVHPTQPFILTSSDDMLIKLWDWDKKWSCSQVFEGHTHYVMQIVINPKDNNQFASASLDRTIKVWQLGSSSPNFTLEGHEKGVNCIDYYSGGDKPYLISGADDRLVKIWDYQNKTCVQTLEGHAQNVSCASFHPELPIIITGSEDGTVRIWHSSTYRLESTLNYGMERVWCVASLRGSNNVALGYDEGSIIVKLGREEPAMSMDANGKIIWAKHSEVQQANLKAMGDAEIKDGERLPLAVKDMGSCEIYPQTIQHNPNGRFVVVCGDGEYIIYTAMALRNKSFGSAQEFAWAHDSSEYAIRESNSVVKIFKNFKEKKSFKPDFGAESIYGGFLLGVRSVNGLAFYDWENTELIRRIEIQPKHIFWSDSGELVCIATEESFFILKYLSEKVLAAQETHEGVTEDGIEDGFEVLGEIQEIVKTGLWVGDCFIYTSSVNRLNYYVGGEIVTIAHLDRTMYLLGYIPKDNRLYLGDKELNIVSYSLLVSVLEYQTAVMRRDFSMADKVLPTIPKEQRTRVAHFLEKQGFKQQALTVSTDPEHRFELALQLGELKIAYQLAVEAESEQKWKQLAELAISKCQFGLAQECLHHAQDYGGLLLLATASGNASMVNKLAEGAERDGKNNVAFMSYFLQGKLDACLELLIRTGRLPEAAFLARTYLPSQVSRVVKLWRENLSKVNQKAAESLADPTEYENLFPGLKEAFVVEEWVKETHADLWPAKQYPLVTPNEERNVMEEAKGFQPSRSAAQQELDGKPASPTPVIVTSQTANKEEKSLLELEVDLDNLEIEDIDTTDINLDEDILDD
B2: epsilon-COP, GAL4 fusion (natural protein)
chain: not shown
B3: alpha-COP, the 135-kD subunit of coatomer (bovine), GAL4 fusion (natural protein, UniProt Q27954 1-1224, looked up)
chain: MLTKFETKSARVKGLSFHPKRPWILTSLHNGVIQLWDYRMCTLIDKFDEHDGPVRGIDFHKQQPLFVSGGDDYKIKVWNYKLRRCLFTLLGHLDYIRTTFFHHEYPWILSASDDQTIRVWNWQSRTCVCVLTGHNHYVMCAQFHPSEDLVVSASLDQTVRVWDISGLRKKNLSPGAVESDVRGITGVDLFGTTDAVVKHVLEGHDRGVNWAAFHPTMPLIVSGADDRQVKIWRMNESKAWEVDTCRGHYNNVSCAVFHPRQELILSNSEDKSIRVWDMSKRTGVQTFRRDHDRFWVLAAHPNLNLFAAGHDGGMIVFKLERERPAYAVHGNMLHYVKDRFLRQLDFNSSKDVAVMQLRSGSKFPVFSMSYNPAENAVLLCTRASNLENSTYDLYTIPKDADTQNPDAPEGKRSSGLTAVWVARNRFAVLDRMHSLLIKNLKNEITKKVQVPNCDEIFYAGTGNLLLRDAESITLFDVQQKRTLASVKISKVKYVIWSADMSHVALLAKHAIVICNRKLEALCNIHENIRVKSGAWDESGVFIYTTSNHIKYAVTTGDYGIIRTLDLPIYVTRVKGNNVYCLDRECRPRVLTIDPTEFKFKLALINRKYDEVLHMVRNAKLVGQSIIAYLQKKGYPEVALHFVKDEKTRFSLALECGNIEIALEAAKALDDKNCWEKLGEVALLQGNHQIVEMCYQRTKNFDKLSFLYLITGNLEKLRKMMKIAEIRKDMSGHYQNALYLGDVSERVRILKNCGQKSLAYLTAATHGLDEEAESLKETFDPEKETIPDIDPNAKLLQPPAPIMPLDTNWPLLTVSKGFFEGSIASKGKGGALAADIDIDTVGTEGWGEDAELQLDEDGFVEATEGLGDDALGKGQEEGGGWDVEEDLELPPELDIPPGAAGGAEDGFFVPPTKGTSPTQIWCNNSQLPVDHILAGSFETAMRLLHDQVGVTQFGPYKQLFLQTYARGRTTYQALPCLPSMYGYPNRNWKDAGLKNGVPAVGLKLNDLIQRLQLCYQLTTVGKFEEAVEKFRSILLSVPLLVVDNKQEIAEAQQLITICREYIVGLSMETERKKLPKETLEQQKRICEMAAYFTHSNLQPVHMILVLRTALNLFFKLKNFRTAAAFARRLLELGPKPEVAQQTRKILSACEKNPTDAYQLNYDMHNPFDICAASYRPIYRGKPVEKCPLSGACYSPEFKGQICKVTTVTEIGKDVIGLRISPLQFR

Legend:
[1] = molecular target: B3; test: two-hybrid
[2] = molecular target: B2; test: two-hybrid

Binder | generations/day in -His + 25 mM AT [1] | generations/day in -His + 25 mM AT [2]
B1 | 2.11 generations/day | 
B2 | 5.2 generations/day | 
B3 |  | 2.8 generations/day
